Literature values, collected in PMC7788954.

Target: Sans SAM-PBM (Homo sapiens) (UniProt Q495M9)
Sequence (Q495M9 388-461): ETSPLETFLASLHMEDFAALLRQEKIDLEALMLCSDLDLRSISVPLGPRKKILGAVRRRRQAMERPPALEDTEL

harmonin N-terminal HHD-containing supramodule, sequence (Q9Y6N9 1-192): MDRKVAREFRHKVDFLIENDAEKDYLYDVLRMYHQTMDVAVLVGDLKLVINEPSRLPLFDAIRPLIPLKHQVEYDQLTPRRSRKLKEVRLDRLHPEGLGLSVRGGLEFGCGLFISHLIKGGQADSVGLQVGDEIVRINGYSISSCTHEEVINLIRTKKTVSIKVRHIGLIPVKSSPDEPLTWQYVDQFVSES

- Kd: 1 nM
Substance: harmonin N-terminal HHD-containing supramodule (from UniProt Q9Y6N9)
